The text below walks through data of paper doi:10.1101/2022.11.10.516004 (bioRxiv, 2022).

The data set deals with the molecule itself. Briefly: NMR titration.

B1: TDP-43 C-terminal domain (CTD), wild type (domain or fragment, human, UniProt Q13148 267-414, looked up)
chain: NRQLERSGRFGGNPGGFGNQGGFGNSRGGGAGLGNNQGSNMGGGMNFGAFSINPAMMAAAQAALQSSWGMMGMLASQQNQSGPSGNNQNQGNMQREPNQAFGSGNNSYSGSNSGAAIGWGSASNAGSGSGFNGGFGSSMDSKSSGWGM
In the case of B1, the binding result is given as “binds”.
